From patent US20050037969A1 (ARBOR VITA, published 2005)
Ends that are not written are not given here. * marks the point of attachment. Biotin = O=C1N[C@H]2[C@H](CS[C@H]2CCCCC(=O)*)N1

T1: GST-TAX-IP40 PDZ domain fusion protein (human, UniProt Q6B4M5 150-252 (rat entry))
T1 construct: also called TAX40; not shown: glutathione S-transferase encoded by vector pGEX-3X (Pharmacia)
T1 sequence: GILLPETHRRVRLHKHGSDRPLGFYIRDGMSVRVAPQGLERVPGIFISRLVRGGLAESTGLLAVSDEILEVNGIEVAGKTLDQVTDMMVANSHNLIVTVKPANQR

T2: MINT3 PDZ-GST fusion protein
T2 construct: Order of GST and PDZ part and limits not seen in the excerpts
T2 chain: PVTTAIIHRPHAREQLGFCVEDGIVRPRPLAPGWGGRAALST

T3: GST-AF6 PDZ domain fusion protein (Homo sapiens (Human), UniProt P55196 1001-1093)
T3 construct: also called af-6 protein; not shown: glutathione S-transferase encoded by vector pGEX-3X (Pharmacia)
T3 sequence: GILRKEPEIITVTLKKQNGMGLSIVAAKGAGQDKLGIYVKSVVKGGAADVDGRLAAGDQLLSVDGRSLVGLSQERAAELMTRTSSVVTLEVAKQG

T4: K858 PDZ-GST fusion protein (Homo sapiens (Human), UniProt Q8WWI1 1038-1131)
T4 construct: Order of GST and PDZ part and limits not seen in the excerpts
T4 sequence: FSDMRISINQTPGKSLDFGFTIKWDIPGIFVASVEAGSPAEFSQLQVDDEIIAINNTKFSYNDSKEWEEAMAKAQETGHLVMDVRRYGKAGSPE

T5: GST-RGS12 PDZ domain fusion protein (human, UniProt O14924 17-85)
T5 construct: also called human regulator of G-protein signalling 12; not shown: glutathione S-transferase encoded by vector pGEX-3X (Pharmacia)
T5 sequence: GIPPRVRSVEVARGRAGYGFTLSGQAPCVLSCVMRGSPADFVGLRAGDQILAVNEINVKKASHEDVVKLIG

T6: GEF PDZ-GST fusion protein (Homo sapiens (Human), UniProt Q8TEU7 293-400)
T6 construct: The label GEF is not explained in the excerpts
T6 sequence: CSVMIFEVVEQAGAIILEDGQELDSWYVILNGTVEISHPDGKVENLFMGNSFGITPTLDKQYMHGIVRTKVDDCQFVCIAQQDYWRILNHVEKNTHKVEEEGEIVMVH

T7: X11β PDZ-GST fusion protein (Rattus norvegicus (Rat), UniProt O35431 560-745)
T7 construct: Order of GST and PDZ part and limits not seen in the excerpts
T7 chain: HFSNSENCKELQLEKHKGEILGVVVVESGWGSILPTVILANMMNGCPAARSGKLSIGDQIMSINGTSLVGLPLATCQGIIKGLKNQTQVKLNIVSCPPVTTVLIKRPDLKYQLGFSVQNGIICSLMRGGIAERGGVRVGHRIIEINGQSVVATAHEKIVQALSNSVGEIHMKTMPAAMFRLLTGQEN

T8: GST-KIAA0303 PDZ domain fusion protein (Homo sapiens (Human), UniProt O15021 1138-1228)
T8 construct: also called K303; not shown: glutathione S-transferase encoded by vector pGEX-3X (Pharmacia)
T8 sequence: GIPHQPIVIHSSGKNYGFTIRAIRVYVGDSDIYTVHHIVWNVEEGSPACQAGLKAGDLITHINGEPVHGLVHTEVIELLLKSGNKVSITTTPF

T9: GST-cytohesin binding protein PDZ domain fusion protein (Homo sapiens (Human), UniProt O60759 74-165)
T9 construct: also called CBP; not shown: glutathione S-transferase encoded by vector pGEX-3X (Pharmacia)
T9 sequence: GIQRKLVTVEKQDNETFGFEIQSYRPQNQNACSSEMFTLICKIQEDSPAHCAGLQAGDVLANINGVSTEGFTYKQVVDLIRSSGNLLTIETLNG

T10: TAX-IP2L PDZ-GST fusion protein (Homo sapiens (Human), UniProt Q8TF64 107-197)
T10 construct: Order of GST and PDZ part and limits not seen in the excerpts
T10 sequence: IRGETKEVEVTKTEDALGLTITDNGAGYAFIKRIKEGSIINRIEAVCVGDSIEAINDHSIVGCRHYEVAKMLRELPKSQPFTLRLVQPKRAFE

T11: KIAA0807 (PDZ domain)-GST fusion protein (human, UniProt Q6P0Q8 1104-1192)
T11 construct: also called K807; KIAA807; not shown: glutathione S-transferase encoded by vector pGEX-3X (Pharmacia)
T11 sequence: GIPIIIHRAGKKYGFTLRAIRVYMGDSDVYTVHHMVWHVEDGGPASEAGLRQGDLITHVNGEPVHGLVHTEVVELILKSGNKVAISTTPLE

T12: ConEn PDZ-GST fusion protein (Homo sapiens (Human), UniProt Q969H4 193-287)
T12 construct: The label ConEn is not explained in the excerpts
T12 sequence: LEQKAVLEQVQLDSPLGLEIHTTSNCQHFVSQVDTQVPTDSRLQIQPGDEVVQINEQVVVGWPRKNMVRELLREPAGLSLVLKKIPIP

T13: GST-DLG5 (p-dlg) PDZ domain fusion protein (Human, UniProt Q8TDM6 1343-1583)
T13 construct: also called Human discs large protein p-dlg; not shown: glutathione S-transferase encoded by vector pGEX-3X (Pharmacia)
T13 sequence: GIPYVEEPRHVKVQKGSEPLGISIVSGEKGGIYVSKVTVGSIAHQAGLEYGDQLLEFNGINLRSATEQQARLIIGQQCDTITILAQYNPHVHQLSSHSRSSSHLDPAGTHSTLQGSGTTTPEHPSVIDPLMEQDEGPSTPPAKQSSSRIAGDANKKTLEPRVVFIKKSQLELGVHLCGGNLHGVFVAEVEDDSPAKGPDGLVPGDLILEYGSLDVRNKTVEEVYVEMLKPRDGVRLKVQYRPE

T14: GST-CASK PDZ domain fusion protein (Homo sapiens, UniProt O14936 486-575)
T14 construct: also called Homo sapiens CASK protein
T14 sequence: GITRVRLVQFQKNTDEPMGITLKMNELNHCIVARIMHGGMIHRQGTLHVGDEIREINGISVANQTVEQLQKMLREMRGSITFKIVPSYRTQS


These binders were tested against T1, GST-TAX-IP40 PDZ domain fusion protein (assay: A/G assays).

Binding result, no binding:
Biotin-SPQPDSTDNDDYDDISAA [CD6 C-terminal peptide AA6L, biotinylated]
Biotin-HKAEIHAQPSDKERLTSDA (also called CD49F (Aform, alpha6)) [CD49F C-terminal peptide AA12L, biotinylated]
Biotin-QFMTADETRNLQNVDMKIGV (also called CD44 (long form)) [CD44 C-terminal peptide AA9L, biotinylated]

Target: T2, MINT3 PDZ-GST fusion protein
Assay: A/G assays

Binding result, no binding:
Biotin-SPQPDSTDNDDYDDISAA [CD6 C-terminal peptide AA6L, biotinylated]
Biotin-HKAEIHAQPSDKERLTSDA (also called CD49F (Aform, alpha6)) [CD49F C-terminal peptide AA12L, biotinylated]
Biotin-QFMTADETRNLQNVDMKIGV (also called CD44 (long form)) [CD44 C-terminal peptide AA9L, biotinylated]

The binders below were run against T3, GST-AF6 PDZ domain fusion protein (assay: A/G assays).

Binding result, no binding:
Biotin-SPQPDSTDNDDYDDISAA [CD6 C-terminal peptide AA6L, biotinylated]
Biotin-HKAEIHAQPSDKERLTSDA (also called CD49F (Aform, alpha6)) [CD49F C-terminal peptide AA12L, biotinylated]
Biotin-QFMTADETRNLQNVDMKIGV (also called CD44 (long form)) [CD44 C-terminal peptide AA9L, biotinylated]

Each binder was assayed against T4, K858 PDZ-GST fusion protein (assay: A/G assays).

Binding result, no binding:
Biotin-SPQPDSTDNDDYDDISAA [CD6 C-terminal peptide AA6L, biotinylated]
Biotin-HKAEIHAQPSDKERLTSDA (also called CD49F (Aform, alpha6)) [CD49F C-terminal peptide AA12L, biotinylated]
Biotin-QFMTADETRNLQNVDMKIGV (also called CD44 (long form)) [CD44 C-terminal peptide AA9L, biotinylated]

Each binder was assayed against T5, GST-RGS12 PDZ domain fusion protein (assay: A/G assays).

Binding result, no binding:
Biotin-SPQPDSTDNDDYDDISAA [CD6 C-terminal peptide AA6L, biotinylated]
Biotin-HKAEIHAQPSDKERLTSDA (also called CD49F (Aform, alpha6)) [CD49F C-terminal peptide AA12L, biotinylated]
Biotin-QFMTADETRNLQNVDMKIGV (also called CD44 (long form)) [CD44 C-terminal peptide AA9L, biotinylated]

These binders were tested against T6, GEF PDZ-GST fusion protein (assay: A/G assays).

Binding result, no binding:
Biotin-SPQPDSTDNDDYDDISAA [CD6 C-terminal peptide AA6L, biotinylated]
Biotin-HKAEIHAQPSDKERLTSDA (also called CD49F (Aform, alpha6)) [CD49F C-terminal peptide AA12L, biotinylated]
Biotin-QFMTADETRNLQNVDMKIGV (also called CD44 (long form)) [CD44 C-terminal peptide AA9L, biotinylated]

Target: T7, X11β PDZ-GST fusion protein
Assay: A/G assays

Binding result, no binding:
Biotin-SPQPDSTDNDDYDDISAA [CD6 C-terminal peptide AA6L, biotinylated]
Biotin-HKAEIHAQPSDKERLTSDA (also called CD49F (Aform, alpha6)) [CD49F C-terminal peptide AA12L, biotinylated]
Biotin-QFMTADETRNLQNVDMKIGV (also called CD44 (long form)) [CD44 C-terminal peptide AA9L, biotinylated]

The binders below were run against T8, GST-KIAA0303 PDZ domain fusion protein (assay: A/G assays).

Binding result, no binding:
Biotin-SPQPDSTDNDDYDDISAA [CD6 C-terminal peptide AA6L, biotinylated]
Biotin-HKAEIHAQPSDKERLTSDA (also called CD49F (Aform, alpha6)) [CD49F C-terminal peptide AA12L, biotinylated]
Biotin-QFMTADETRNLQNVDMKIGV (also called CD44 (long form)) [CD44 C-terminal peptide AA9L, biotinylated]

What follows are binders tested against T9, GST-cytohesin binding protein PDZ … (assay: A/G assays).

Binding result, no binding:
Biotin-SPQPDSTDNDDYDDISAA [CD6 C-terminal peptide AA6L, biotinylated]
Biotin-HKAEIHAQPSDKERLTSDA (also called CD49F (Aform, alpha6)) [CD49F C-terminal peptide AA12L, biotinylated]
Biotin-QFMTADETRNLQNVDMKIGV (also called CD44 (long form)) [CD44 C-terminal peptide AA9L, biotinylated]

These binders were tested against T15, NSP PDZ-GST fusion protein (Homo sapiens (Human), UniProt Q92743 370-466) (assay: A/G assays).
T15 construct: The label NSP is not explained in the excerpts
T15 sequence (Q92743 other isoform, or with tags, fused parts or gaps limits assumed): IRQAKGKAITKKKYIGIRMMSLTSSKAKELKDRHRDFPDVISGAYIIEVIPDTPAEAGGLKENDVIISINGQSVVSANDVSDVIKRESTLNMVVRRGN

Binding result, no binding:
Biotin-SPQPDSTDNDDYDDISAA [CD6 C-terminal peptide AA6L, biotinylated]
Biotin-HKAEIHAQPSDKERLTSDA (also called CD49F (Aform, alpha6)) [CD49F C-terminal peptide AA12L, biotinylated]
Biotin-QFMTADETRNLQNVDMKIGV (also called CD44 (long form)) [CD44 C-terminal peptide AA9L, biotinylated]

What follows are binders tested against T10, TAX-IP2L PDZ-GST fusion protein (assay: A/G assays).

Binding result, no binding:
Biotin-SPQPDSTDNDDYDDISAA [CD6 C-terminal peptide AA6L, biotinylated]
Biotin-HKAEIHAQPSDKERLTSDA (also called CD49F (Aform, alpha6)) [CD49F C-terminal peptide AA12L, biotinylated]
Biotin-QFMTADETRNLQNVDMKIGV (also called CD44 (long form)) [CD44 C-terminal peptide AA9L, biotinylated]

Each binder was assayed against T11, KIAA0807 (PDZ domain)-GST fusion protein (assay: A/G assays).

Binding result, no binding:
Biotin-SPQPDSTDNDDYDDISAA [CD6 C-terminal peptide AA6L, biotinylated]
Biotin-HKAEIHAQPSDKERLTSDA (also called CD49F (Aform, alpha6)) [CD49F C-terminal peptide AA12L, biotinylated]
Biotin-QFMTADETRNLQNVDMKIGV (also called CD44 (long form)) [CD44 C-terminal peptide AA9L, biotinylated]

These binders were tested against T12, ConEn PDZ-GST fusion protein (assay: A/G assays).

Binding result, no binding:
Biotin-SPQPDSTDNDDYDDISAA [CD6 C-terminal peptide AA6L, biotinylated]
Biotin-HKAEIHAQPSDKERLTSDA (also called CD49F (Aform, alpha6)) [CD49F C-terminal peptide AA12L, biotinylated]
Biotin-QFMTADETRNLQNVDMKIGV (also called CD44 (long form)) [CD44 C-terminal peptide AA9L, biotinylated]

Each binder was assayed against T13, GST-DLG5 (p-dlg) PDZ domain fusion … (assay: A/G assays).

Binding result, no binding:
Biotin-SPQPDSTDNDDYDDISAA [CD6 C-terminal peptide AA6L, biotinylated]
Biotin-HKAEIHAQPSDKERLTSDA (also called CD49F (Aform, alpha6)) [CD49F C-terminal peptide AA12L, biotinylated]
Biotin-QFMTADETRNLQNVDMKIGV (also called CD44 (long form)) [CD44 C-terminal peptide AA9L, biotinylated]

These binders were tested against T14, GST-CASK PDZ domain fusion protein (assay: A/G assays).

Binding result, no binding:
Biotin-SPQPDSTDNDDYDDISAA [CD6 C-terminal peptide AA6L, biotinylated]
Biotin-HKAEIHAQPSDKERLTSDA (also called CD49F (Aform, alpha6)) [CD49F C-terminal peptide AA12L, biotinylated]
Biotin-QFMTADETRNLQNVDMKIGV (also called CD44 (long form)) [CD44 C-terminal peptide AA9L, biotinylated]
